The values below come from patent publication US20150202287A1, “COMBINATION THERAPIES COMPRISING ANTI-ERBB3 AGENTS” (Merrimack Pharmaceuticals, Inc., priority 2012, published 2015).

The subject of one series is NCI-N87 cells. Description: T-DM1 and heregulin dose matrix cell viability, NCI-N87. The settings on record: for cell viability: T-DM1 0 μg/ml, with MM-111 1 μM, 72 h. The class given is cell-based. The method, then:
Cells were allowed to adhere 16-20 hours at +37° C., 5% CO2. Cells were stimulated for 4 hours by adding 5 μl of culture media containing recombinant human NRG-1-β1 EGF domain (HRG1) bringing the final HRG1 stimulation concentration to 0, 0.313, 0.625, 1.25, 2.5, 5 or 10 nM. […] All conditions were assayed in biological quadruplicates. Cells were incubated for 72 h at +37° C., 5% CO2. Cell viability was determined by CellTiter-Glo® Luminescent Cell Viability Assay by adding 20 μl of reconstituted CellTiter-Glo reagent per well, incubating plated for 10 minutes at RT in an orbital shaker and reading the luminescence signal using Biotek™ Synergy H1 Hybrid Reader.

Another series has as its system ErbB2 and ErbB3. As to the kind of experiment: Affinity of MM-111 antigen-binding sites.
A further series concerns phospho-AKT (pAKT). Description: Cell signaling assay, pAKT ELISA, ZR75-30. The class given is cell-based. The settings on record: ZR75-30 cells, stimulation with 5 nM heregulin for 10 min; read-out: IC50, reduction of pAKT levels. How it is done:
(§1) Cell lysates are probed for phospho-ErbB3 (pErbB3), and phospho-AKT (pAKT) by ELISA as described previously (Schoeberl et al, 2009) Inhibitor IC50 values are calculated by fitting dose-response data to a 4-parameter sigmoidal curve (GraphPad Prism®, GraphPad Software, Inc., La Jolla, Calif.).
(§2) CRL-1504®), cells were incubated with serial dilutions of either inhibitor for 15 minutes, 1 hour, 4 hours, and 24 hours followed by stimulation with 5 nM heregulin for 10 min Amounts of pAKT and pErbB3 were measured by ELISA essentially as described.
(An ELISA detects its analyte on a solid surface through an enzyme-linked reagent.)

Series [1] concerns phospho-ErbB3 (pErbB3). The class given is cell-based. As to conditions: up to 24 hours incubation. How it is done: as §1
Model-generated dose-response curves overlay the experimental data (FIG. 7a). […] Untreated and heregulin-stimulated cells were probed for pErbB3 and pAKT and the IC50 was calculated (FIG. 7b).
as §2

For series [2], the system named is phospho-ErbB3 (pErbB3). As to the kind of experiment: Cell signaling assay, pErbB3 ELISA, ZR75-30. The class given is cell-based. The settings on record: ZR75-30 cells, stimulation with 5 nM heregulin for 10 min; read-out: IC50, reduction of pErbB3 levels. The method, then:
as §1, §2

MM-111: the cell viability in the series on NCI-N87 cells (HRG 0 nM) is given as 100 % of control; in the series with NCI-N87 cells (HRG 0.313 nM), 101.4158 % of control; in the series with NCI-N87 cells (HRG 0.625 nM), 105.024 % of control; in the series on NCI-N87 cells (HRG 1.25 nM) it was 110.2781 % of control; with NCI-N87 cells (HRG 2.5 nM), 118.0867 % of control; with NCI-N87 cells (HRG 5 nM) it was 126.5145 % of control. Besides, the cell viability in the series on NCI-N87 cells (HRG 10 nM) is listed as 146.1417 % of control. In the series on ErbB2 and ErbB3, the “affinity of ErbB2 antigen-binding site relative to ErbB3 antigen-binding site” value is “about 30 times”. Also, the IC50 in the series on phospho-AKT (pAKT) turned out to be 4 nM; with phospho-ErbB3 (pErbB3) [2] it was 5 nM. In addition, in the series on phospho-ErbB3 (pErbB3) [1], the “inhibition of heregulin-induced ErbB3 activation relative to lapatinib” value is “superior to lapatinib by greater than an order of magnitude”.
With “ado-trastuzumab emtansine [T-DM1, reference compound]”, in the series with NCI-N87 cells (HRG 0.313-10 nM), the “activity of T-DM1 with exogenous HRG” value was “exogenous HRG decreases the activity of T-DM1”.

Broadly, the IC50 is the concentration that gives 50% inhibition.
